Blank lines part the entries; values can stand above or below the substance they belong to.
How the values were obtained:
[1] = target: rat brain farnesyl:protein transferase (rat) (UniProt Q04631); experiment: cell-based or functional assay
[2] = system: biotinylated KTSCVIM

fold decline of affinity for the enzyme [1]: > 50 fold
Substance: CVIM with glutamic acid at the A2 position (peptide)

concentration giving 50% inhibition (farnesyl transfer to p21^H-ras) [1]: 8 µM
Substance: CVIM with glycine at the A2 position (peptide)

fold decline of affinity for the enzyme [1]: > 50 fold
fold decrease of affinity for the enzyme against CVIM [1]: > 30 fold
Substance: CVIM with lysine at the A2 position (peptide)

Substance: rat brain farnesyl:protein transferase
farnesylation of the peptide (substrate activity) [2]: The studies with the biotinyated heptapeptide ( FIG. 12B ) confirm that at least some of the short peptides act as substrates for the enzyme
